B1: HDV Ribozyme (parent)
chain: GGCCGGCAUGGUCCCAGCCUCCUCGCUGGCGCCGGCUGGGCAACAUUCCGAGGGGACCGUCCCCUCGGUAAUGGCGAAUGGGACCCA

Variants of: B1
Assay: self-cleavage, relative activity (ratio to wild type); higher = more cleavage; co-transcriptional

Variant | self-cleavage
GGCCGGCAUGGUCCCAGCCUCCGCGCUGGCGCGGGCUGGGCAACAUUCCGAGGGGACCGUCCCCUCGGUAAUGGCGAAUGGGACCCA [U23G C33G] | 0.161
GGCCGGCAUGGUCCCAGCCUCCGCGCUGGCGCCGGCUGGGCAACAUUCCGAGGGGACCGUCCCCUCGGUAAUGGCGAAUGGGACCAA [U23G C86A] | 0.607
GGCCGGCAUGGUCCCAGCCUCCGCGCUGGCGCCGGCUGGGCAACAUUCCGAGGGGACCGUCCCCUCGGUAAUGGCGAAUGGGACCUA [U23G C86U] | 0.877
GGCCGGCAUGGUCCCAGCCUCCGCGCUGGCGCCGGCUGGGCAACAUUCCGAGGGGACCGUCCCCUCGGUAAUGGCGAAUGGGACCGA [U23G C86G] | 0.525
GGCCGGCAUGGUCCCAGCCUCCGCGCUGGCGCCGGCUGGGCAACAUUCCGAGGGGACCGUCCCCUCGGUAAUGGCGAAUGGGAUCCA [U23G C84U] | 0.342
GGCCGGCAUGGUCCCAGCCUCCGCGCUGGCGCCGGCUGGGCAACAUUCCGAGGGGACCGUCCCCUCGGUAAUGGCGAAUGGGAGCCA [U23G C84G] | 0.388
GGCCGGCAUGGUCCCAGCCUCCGCGCUGGCGCCGGCUGGGCAACAUUCCGAGGGGACCGUCCCCUCGGUAAUGGCGAAUGGGACACA [U23G C85A] | 0.787
GGCCGGCAUGGUCCCAGCCUCCGCACUGGCGCCGGCUGGGCAACAUUCCGAGGGGACCGUCCCCUCGGUAAUGGCGAAUGGGACCCA [U23G G25A] | 0.142
GGCCGGCAUGGUCCCAGCCUCCGCGCUGGCGCCGGCUGGGAAACAUUCCGAGGGGACCGUCCCCUCGGUAAUGGCGAAUGGGACCCA [U23G C41A] | 0.465
GGCCGGCAUGGUCCCAGCCUCCGCGCUGGCGCCGGCUGGGCAACAUUCCGAGGGGACCGUCCCCUCGGUAAUGGCGAAUGGGACCCG [U23G A87G] | 0.645
GGCCGGCAUGGUCCCAGCCUCCGCGCUGGCGCCGGAUGGGCAACAUUCCGAGGGGACCGUCCCCUCGGUAAUGGCGAAUGGGACCCA [U23G C36A] | 0.203
GGCCGGCAUGGUCCCAGCCUCCGCGCUGGCGCCGGCUGGGCAACAUUCCGAGGGGACCGUCCCCUUGGUAAUGGCGAAUGGGACCCA [U23G C66U] | 0.65
GGCCGGCAUGGUCCCAGCCUCCGCGCUGGCGCCGGCUGGGCAACAUUCCGAGGGGACCGUCUCCUCGGUAAUGGCGAAUGGGACCCA [U23G C62U] | 0.403
GGCCGGCAUGGUCCCAGCCUCCGCGCUGGCGCCGGCUGGGCAACAUUCCGAGGGGACCGUCACCUCGGUAAUGGCGAAUGGGACCCA [U23G C62A] | 0.712
GGCCGGCAUGGUCCCAGCCUCCGCGCUGGCGCCGGCUGGGCAACAUUCCGAGGGGACCGUCCGCUCGGUAAUGGCGAAUGGGACCCA [U23G C63G] | 0.688
GGCCGGCAUGGUCCCAGCCUCCGCGCUGGCGCCGGCUGGGCAACAUUCCGAGGGGACCGUCCCCUCGGUAAUGGCGAAUGGGGCCCA [U23G A83G] | 0.237

Variant | self-cleavage
GGCCGGCAUGGUCCCAGCCUCCGCGCUGGCGCCGGCUGGGCAAAAUUCCGAGGGGACCGUCCCCUCGGUAAUGGCGAAUGGGACCCA [U23G C44A] | 0.0791
GGCCGGCAUGGUCCCAGCCUCCGCGCUGCCGCCGGCUGGGCAACAUUCCGAGGGGACCGUCCCCUCGGUAAUGGCGAAUGGGACCCA [U23G G29C] | 0.196
GGCCGGCAUGGUCCCAGCCUCCGCGCUGGCGCCGGCUGGGCAACAUUCCGAGGGGAACGUCCCCUCGGUAAUGGCGAAUGGGACCCA [U23G C57A] | 0.656
GGCCGGCAUGGUCCCAGCCUCCGCGCUGGCGCCGGCUGGGCAACAUUCCGAGGGGAUCGUCCCCUCGGUAAUGGCGAAUGGGACCCA [U23G C57U] | 0.785
GGCCGGCAUGGUCCCAGCCUCCGCGCUGGCGCCGGCUGGGCAACAUUCCGAGGGGAGCGUCCCCUCGGUAAUGGCGAAUGGGACCCA [U23G C57G] | 0.831
GGCCGGCAUGGUCCCAGCCUCCGCGUUGGCGCCGGCUGGGCAACAUUCCGAGGGGACCGUCCCCUCGGUAAUGGCGAAUGGGACCCA [U23G C26U] | 0.997
GGCCGGCAUGGUCCCAGCCUCCGCGCUGGCGCCGGCUGGGCAACAUUACGAGGGGACCGUCCCCUCGGUAAUGGCGAAUGGGACCCA [U23G C48A] | 0.807
GGCCGGCAUGGUCCCAGCCUCCGCGCUGGCGCCGGCUGGGCAACAUUCCGAGGGGACCGUCCCAUCGGUAAUGGCGAAUGGGACCCA [U23G C64A] | 0.89
GGCCGGCAUGGUCCCAGCCUCCGCGCUGGCGCCGGCUGGGCAACAUUCCGAGGGGACCGUCCCUUCGGUAAUGGCGAAUGGGACCCA [U23G C64U] | 0.61
GGCCGGCAUGGUCCCAGCCUCCGCGCUGGCGCCGGCUGGGCAACAUUCCGAGGGGACCGUUCCCUCGGUAAUGGCGAAUGGGACCCA [U23G C61U] | 0.923
GGCCGGCAUGGUCCCAGCCUCCGCGCUGGCGCCGGCUGGGCAACAUUCCGAGGGGACCGUACCCUCGGUAAUGGCGAAUGGGACCCA [U23G C61A] | 0.743
GGCCGGCAUGGUCCCAGCCUCCGCGCUGGUGCCGGCUGGGCAACAUUCCGAGGGGACCGUCCCCUCGGUAAUGGCGAAUGGGACCCA [U23G C30U] | 0.203
GGCCGGCAUGGUCCCAGCCUCCGCGCUGGAGCCGGCUGGGCAACAUUCCGAGGGGACCGUCCCCUCGGUAAUGGCGAAUGGGACCCA [U23G C30A] | 0.145
GGCCGGCAUGGUCCCAGCCUCCGCGCUGGGGCCGGCUGGGCAACAUUCCGAGGGGACCGUCCCCUCGGUAAUGGCGAAUGGGACCCA [U23G C30G] | 0.0536
GGCCGGCAUGGUCCCAGCCUCCGCGCUGGCGCCGGCUGGGCAACAUUCAGAGGGGACCGUCCCCUCGGUAAUGGCGAAUGGGACCCA [U23G C49A] | 0.831
GGCCGGCAUGGUCCCAGCCUCCGCGCUGGCGCCGGCUGGGCAACAUUCUGAGGGGACCGUCCCCUCGGUAAUGGCGAAUGGGACCCA [U23G C49U] | 0.867

Reference: the RNAGym collection of RNA variant scans (doi:10.7554/elife.80360)
